Assay results: US20060210973A1

Biological target: HA-TrioGEFD2 (pMTHA-TrioGEFD2) (UniProt O75962)
Assay: cell-based or functional assay

percentage of co-transfected PC12 cells with neurites after NGF: 16%
Substance: GFP alone
